In assay [1] the target is T1, Acro Biosystems Human NKp46 expressed in HEK293 cells (human, UniProt O76036 22-258).
T1 construct: Bought antigen coated on the ELISA plate
The assay can be described thus: ELISA titration on coated Acro Biosystems human NKp46, anti-human kappa-HRP, absorbance at 450 nm; given as affinity. The method, then: The binding of the humanized antibodies with mutated IgG4 to cells expressing NKp46 was examined. The experiments were performed as follows: [0300] 1. Coat tested in a matrix of 3 conc. vs. 3 buffers to find optimal signal. [0301] 2. Optimal signal conditions were used to coat the ELISA tray, using standard blocking and washing steps. [0302] 3. Primary antibody applied in range of concentrations with 10-dilutions (MAbs with humanized variable + mutated IgG4). [0303] 4. Secondary Ab used to detect binding was Anti-Hu Kappa with HRP (TMB sub strate). [0304] 5. Absorbance measured at 450 nm.
The antigen was Acro Biosystems Human NKp46 that was expressed in HEK293 cells.
In general terms: ELISA stands for enzyme-linked immunosorbent assay.

The target in a further assay is T2, NKp46 D1 domain-Ig (human, UniProt O76036 22-120).
T2 construct: domain: D1; also called D1-Ig; Ig-D1; not shown: Ig part not described for this construct
T2 sequence (O76036 22-120): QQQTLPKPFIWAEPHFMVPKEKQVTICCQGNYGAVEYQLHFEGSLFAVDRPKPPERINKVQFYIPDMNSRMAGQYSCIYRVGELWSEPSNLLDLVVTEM
The assay can be described thus: ELISA, D1-Ig plated at 0.1 ug/well, biotin anti-mouse / streptavidin-POD / TMB, OD 650nm. The method, then:
To identify the binding site of the anti-NKp46 mAbs, Ig-D1, Ig-D2 and Ig-NKp46 were plated at 0.1 µg/well. The plate was placed at 4° C. overnight. The next day blocking was performed (blocking buffer is PBSx1, 0.05%Tween-20, and 5% BSA) followed by addition of the mAbs at 0.1 µg/well and 10 µl/well of SN antibodies (both diluted in blocking buffer to a final volume of 100µl). The plate was placed at 4° C. overnight. The next day, biotin anti-mouse was added (diluted in blocking buffer), followed by streptavidin-POD (diluted in blocking buffer), and with TMB for detection of samples at OD650nm.

T1 sequence (O76036 22-258 limits assumed): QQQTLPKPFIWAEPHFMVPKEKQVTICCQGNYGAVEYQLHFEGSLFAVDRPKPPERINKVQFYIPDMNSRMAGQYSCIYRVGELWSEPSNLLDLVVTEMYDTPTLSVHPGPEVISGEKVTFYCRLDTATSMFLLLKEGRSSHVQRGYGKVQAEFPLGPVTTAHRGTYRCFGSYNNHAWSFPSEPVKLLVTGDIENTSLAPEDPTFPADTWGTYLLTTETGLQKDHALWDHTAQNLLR

B1: humanized P4 antibody having mutated IgG4 (antibody, V domains shown)
VH: EVQLQQSGAEVKKPGSSVKVSCKTSGYTFTEYSMHWVRQAPGKSLEWFGGISPNSGGTSYNQKFKGRATLTVDKSSSTAYMELSSLRSEDTAVYYCARRDFHSSFDYWGQGTTVTVSS
VL: DIVMTQSPATLSLSPGERATLSCRASQSISDYLHWFQQKPHESPRLLIKYASQSISGIPARFSGSGSGSDFTLTISSLEPEDFAVYYCQNGHSFPLTFGPGTKVDIK
notes: detected with an anti-human kappa secondary antibody
Usually Kd stands for the constant that tells how readily two partners part at equilibrium. Lower therefore signals a tighter complex. With B1, the Kd in assay [1] is 0.0205 nM.

B2: humanized K3 antibody having mutated IgG4 (antibody, V domains shown)
VH: B1 VH
VL: DIVLTQSPATLSLSPGERATLSCRASQSISDYLHWFQQKPHESPRLLIKYASQSISGIPARFSGSGSGSDFTLTISSLEPEDFAVYYCQNGHSFPLTFGPGTKVDIKR
notes: as for B1
In the case of B2, in assay [1], the Kd came to 0.027 nM.

B3: anti-NKp46 monoclonal antibody clone K3 (antibody, V domains shown)
VH: EVQLQQSGPELVKPGTSVKISCKTSGYTFTEYSMHWVKQSHGKSLEWFGGISPNSGGTSYNQKFKGKATLTVDKSSSTAYMELRSLTSEDSAVYYCARRDFHSSFDYWGQGTTLTVSS
VL: DIVLTQSPATLSVTPGNSVSLSCRASQSISDYLHWFQQKSHESPRLLIKYASQSISGIPSRFSGSGSGSDFTLSINSVEPEDVGVYYCQNGHSFPLTFGPGTKLELK
In the case of B3, the binding result with NKp46 D1 domain-Ig is reported as “no binding”.

For the origin of these results see patent US20230183342A1 (YISSUM RESEARCH DEVELOPMENT COMPANY OF THE HEBREW …, published 2023).
